Experiment: yeast display, Sf9 membrane polyspecificity reagent, FACS + sequencing; frameworks hold sequencing errors
Outline: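 Using colony PCR, genes from sorted yeast display clones were amplified, then sequenced on MiSeq at 2 × 250 and filtered by CDR length. The clones had been stained with 10% biotinylated, detergent-solubilized Sf9 membrane reagent for 1 hour at 4 °C and sorted by FACS into low and high (top ~1%) gates on anti-HA and streptavidin fluorescence. Polyreactivity labels come from the gate of origin.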

For “QVQLVESGGGLVQAGGSLRLSCAASGFIFTKYAMGWYRQAPGKERELVAVITSRGTRTYYADSVKGRFTISRDNAKNTVYLQMNSLKPEDTAVYYCAADYQGPYDYWGQGTQVTVSS”, the “polyreactivity (PSR sort gate)” value was “high polyreactivity”.
For “QVQLVESGGGLVQAGGSLRLSCAASGFIFTNVMGWYRQAPGKERELVAAISGRGTSTYYADSVKGRFTISRDNAKNTVYLQMNSLKPEETAVYYCAAASYQSRYWNYYWGQGTQVTVSS”, the “polyreactivity (PSR sort gate)” value was “high polyreactivity”.
For “QVQLVESGGGLVQAGGSLRLSCAASGFIFTPYAMGWYRQAPGKEREFVATITWSGGSTNYADSVKGRFTISRDNAKNTVYLQMNSLKPEDTAVYYCNADTWSPNDYWGQGTQVTVSS”, the “polyreactivity (PSR sort gate)” value was “low polyreactivity”.
For “QVQLVESGGGLVQAGGSLRLSCAASGFIFTPYAMGWYRQAPGKERELVAAISKSGADTFYADSVKGRFTISRDNAKNTVYLQMNSLKPEDTAVYYCAADDYWGYDYWGQGTQVTVSS”, the “polyreactivity (PSR sort gate)” value was “high polyreactivity”.
With “QVQLVESGGGLVQAGGSLRLSCAASGFIFTPYAMGWYRQAPGKERELVAAISWIGGRTYYADSVKGRFTISRDNAKNTVYLQMHSLKPEDTAVYYCNARTHGWPYSRYYYWGQGTQVTVSS” the “polyreactivity (PSR sort gate)” value was “high polyreactivity”.
For “QVQLVESGGGLVQAGGSLRLSCAASGFIFTQNAMGWYRQAPGKERELVAVIRWNGGSTYYADSVKGRFTISRDNAKNTVYLQMNSLKPEDTEVYYCAAEFLWIVDYWGQGTQVTVSS”, the “polyreactivity (PSR sort gate)” value was “low polyreactivity”.
For “QVQLVESGGGLVQAGGSLRLSCAASGFIFTRNAMGWYRQAPGKERELVAAITSSGGSTYYADSVKGRFTISRDNAKYTVYLQMNCLKPEDTAVYYFAADDIQTYGDDYWGQGTQVTVSS”, the “polyreactivity (PSR sort gate)” value was “high polyreactivity”.
With “QVQLVESGGGLVQAGGSLRLSCAASGFIFTRNVMGWNRQAPGKERELVAAISSGGRTYYADSVKGRFTISRDNAKKTVYFQMISLKPEDTAVYYCNAGNRGVYRYDYWGQGTQVTVSS” the “polyreactivity (PSR sort gate)” value was “high polyreactivity”.
For “QVQLVESGGGLVQAGGSLRLSCAASGFIFTSNAMGWYRQAPGKERELVAAITKSGGSTYYADSVKGRFTISRDNAKNTVYLQMNSLKPEDTAVYYCATRGVRRYYKTMNYWGQGTQVTVSS”, the “polyreactivity (PSR sort gate)” value was “high polyreactivity”.
In the case of “QVQLVESGGGLVQAGGSLRLSCAASGFIFTSYALGWYRQAPGKEREFFAAISRRGGSTYYADSVKGRFTISRDNAKNTVYLQMNSLKPEDTAVYYCAADPKQHSGYDYWGQGTQVTVSS”, the “polyreactivity (PSR sort gate)” value is reported as “high polyreactivity”.
For “QVQLVESGGGLVQAGGSLRLSCAASGFIFTSYAMGWYRQAPGKERELVAAITDGGSTNYADSVKGRFTISRDNAKNTVYLQMNSLKPEDTAVFYCAADGFKTVLPEYDYWGQGTQVTVSS”, the “polyreactivity (PSR sort gate)” value was “low polyreactivity”.
For “QVQLVESGGGLVQAGGSLRLSCAASGFIFTSYDMGWYRQAPWKEREFVAAISWSGDRTYYADSVKGRFTISRDYAKNTVYLQMNSLKPEDTAVYYCAADRSIRRYYGYDYWGQGTQVTVSS”, the “polyreactivity (PSR sort gate)” value was “high polyreactivity”.
For “QVQLVESGGGLVQAGGSLRLSCAASGFIFTTNAMGWYRQAPGKERELVAAITRSGGSTYADSVKGRFTLSRDNAKNTVYLQMNSLKPEETAVYYCNADGYFWGQGTQVTVSS”, the “polyreactivity (PSR sort gate)” value was “low polyreactivity”.
For “QVQLVESGGGLVQAGGSLRLSCAASGFIFTVNAMGWYRQAPGKERELVAAITQSGGNTSYADSVKGRFTISRDNAKNTVYLQMNSLKPEDTAVYYCNASSDTSRYGVSTYYYWGQGTQVTVSS”, the “polyreactivity (PSR sort gate)” value was “low polyreactivity”.
For “QVQLVESGGGLVQAGGSLRLSCAASGFIFTVNAMGWYRQAPGKERELVAAITQSGGNTSYADSVKGRFTISRDNAKNTVYLQMNSLTPEDTAVYYCNASSDTSRYGVSTYYYWGQGTQVTVSS”, the “polyreactivity (PSR sort gate)” value was “low polyreactivity”.
For “QVQLVESGGGLVQAGGSLRLSCAASGFIFTVYAMGWYRQAPGKERELVAAINRSGTRTTYADSVKGRFSISRDNAKNTVYIQMNSLKPEDTAVYYCAALSTGSHWQNEYGYWGQGTQVTVSS”, the “polyreactivity (PSR sort gate)” value was “low polyreactivity”.
In the case of “QVQLVESGGGLVQAGGSLRLSCAASGFIFTYYAMGWFRQAPGKERELVAVISWSGGTTYYADSVKGRFTISRDNAKNTVYLQMNSLKPEDTAVFYCNARSLAKLPRSSVRVEYDYWGQGTQVTLSS”, the “polyreactivity (PSR sort gate)” value is reported as “low polyreactivity”.
In the case of “QVQLVESGGGLVQAGGSLRLSCAASGFIFTYYAMGWYRQAPGKERELVAAISSRGGSTFYADSVKGRFTISRDNAKNTVYLQMNSLKPEDTAVYYCAADKWYAANQGYYYWGQGTQVTVSS”, the “polyreactivity (PSR sort gate)” value is reported as “low polyreactivity”.
With “QVQLVESGGGLVQAGGSLRLSCAASGFIFVAYALGWYRPAPGKERELVAAITSSGVTTYYADSVKGRFTISRDNAKNTVYLQMTSLKQDDTAVYFCAAYRRRSPFDYWGQGTQVTVSS” the “polyreactivity (PSR sort gate)” value was “high polyreactivity”.
For “QVQLVESGGGLVQAGGSLRLSCAASGFIFVNYAMGWNRQAPGKERELVAAISARGGSTNYADSVKGRFTISRDNAKNTVYLQMNSLKPEDTAVYYCAARYTARRQSYGYWGQGTQVTVSS”, the “polyreactivity (PSR sort gate)” value was “high polyreactivity”.
In the case of “QVQLVESGGGLVQAGGSLRLSCAASGFIFVRNAMGWYRQAPGKEREFVAAITRSGGSTYYADSVKGRFTISRDNAKNTVYLQMNCLKPEDTAVYYCAVLYHSRDRYTYRDEDYWGQGTQVTVSS”, the “polyreactivity (PSR sort gate)” value is reported as “low polyreactivity”.
For “QVQLVESGGGLVQAGGSLRLSCAASGFIFVRYAMGWYRQAPGKERELVAAISWRGGSTYYADSVKGRFTISRDNAKNTVYLQMNSLKPEDTAVYYCAAVTWVHRYSRFHPFVAFDYWGQGTQVTVSS”, the “polyreactivity (PSR sort gate)” value was “high polyreactivity”.
For “QVQLVESGGGLVQAGGSLRLSCAASGFIFVTNAMGWYRQAPGKERELVAAINWSGGRTYYADSVKGRFTISRDNAKNTVYLQMNSLKPEDTAVYYCAADPYARLGEYGYCGQGTQVTVSS”, the “polyreactivity (PSR sort gate)” value was “low polyreactivity”.
For “QVQLVESGGGLVQAGGSLRLSCAASGFIFWDNAMGWYRQAPGKERELVAAISRNGGRTYYADSVKGRFTISRDNAKNTVYLQMNSLKPEDTAVYYCAAYTARSYGMDYWGQGTQVTVSS”, the “polyreactivity (PSR sort gate)” value was “high polyreactivity”.
With “QVQLVESGGGLVQAGGSLRLSCAASGFIFWDYAMGCYRQAPGKERELVAAISDSGGDTYYADSVKGRFTLSRDNAKNTVYLQMNSLKPEDPAVYYRAADVELWVFRGQQYDYWGQGTQETVSS” the “polyreactivity (PSR sort gate)” value was “low polyreactivity”.
With “QVQLVESGGGLVQAGGSLRLSCAASGFIFWGNTMGWYRQAPGKERELVAAISSSGGRTYYADSVKGRFTISRDNAKNTVYLQMNSLKPEDTAVYYCAKVRRSDYDSDYWGQGTQVTVSS” the “polyreactivity (PSR sort gate)” value was “high polyreactivity”.
With “QVQLVESGGGLVQAGGSLRLSCAASGFIFWGNTMVWYRQAPGKERELVAAITYSGGSTYYADSVKGRFTISRDNAKNTVYLQMNSLKPEDTAVYYCNKVFVYRGDYWGQGSQVTVSS” the “polyreactivity (PSR sort gate)” value was “high polyreactivity”.
With “QVQLVESGGGLVQAGGSLRLSCAASGFIFWHYAMGWYRQAPGKERELVAAISWSGGRTYYADSVKGRFTISRDNAKNTVYLQMNSLKPEDTAVYYCARSKRVTPYEYDYWGQGTQVTVSS” the “polyreactivity (PSR sort gate)” value was “high polyreactivity”.
For “QVQLVESGGGLVQAGGSLRLSCAASGFIFWHYTMGWYRQAPGKERELVAASTWTGGSTYYADSVKGRFTISRDNEKNTVYLQMNSLKPEETAVYYCNADYPGEGITYGYWGQGTQVTLSS”, the “polyreactivity (PSR sort gate)” value was “low polyreactivity”.
With “QVQLVESGGGLVQAGGSLRLSCAASGFIFWPYAMGWYRQAPGKERELVAAITRSGGSTYYADSVKGRFTISRDNAKNTVYLQMNSLKPEDTAVYYCAARKRGTFTYDYWGQGTQVTVSS” the “polyreactivity (PSR sort gate)” value was “high polyreactivity”.
For “QVQLVESGGGLVQAGGSLRLSCAASGFIFWQNAMGWSRQAPGKEREWVADISWSGGGSTYYADSVKGRFTISRDNAKNTVYLQMNSLKPADTALYYCAASQVYSYYGTYYSAYDYWGQGTQVTVSS”, the “polyreactivity (PSR sort gate)” value was “low polyreactivity”.
In the case of “QVQLVESGGGLVQAGGSLRLSCAASGFIFWYNAMGWYRQAPGKERELVAAITTAGSTNYADSVKGRFTISRDNAKNTVYLQMNSLKPEDTAVYYCAAVSSYWGQGTQVTVSS”, the “polyreactivity (PSR sort gate)” value is reported as “low polyreactivity”.

From the nanobody polyreactivity screen of Harvey et al. (2022)
